The values below come from JP2018150260A (dated 2018).

For the assay, the target named is T1, myc3 タグ融合 PB1 サブユニット(1aa-81aa), expressed in 293T cells (influenza virus H1N1, UniProt P03431 1-81).
T1 construct: range 1-81
In words: Western blot of 293T lysate (denatured protein). For orientation: A western blot detects proteins with antibodies after separation by electrophoresis.

T1 sequence (P03431 1-81): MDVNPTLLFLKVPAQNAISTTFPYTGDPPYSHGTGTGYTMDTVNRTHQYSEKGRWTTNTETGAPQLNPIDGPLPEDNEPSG

B1: PA 11-9.4モノクローナル抗体 (antibody, V domains shown)
VH: AEFVKPGASVKLSCIASGFNIKDTYMYWVKQRPEQGLEWIGRIDPANGNTKYDPKFQGKATITTDTSSNTAYLQVSSLTSEDTAVYYCAYRYDYYFDYWGQGTTLTVSS
VL: not shown
notes: also called PA 11-9.4 抗体
As to B1, the binding result is “no binding”.
